Experimental findings from publication PMC3769348, “Secreted and Transmembrane 1A Is a Novel Co-Stimulatory Ligand” (PLoS ONE, 2013) are described below.

This experiment has as its target T1, SECTM1B-Fc fusion protein (extracellular domain of murine SECTM1B fused to aglycosyl human IgG1 Fc) (mouse, UniProt Q9JL59 29-160, N-glycosylated).
T1 construct: Secreted and transmembrane 1B (SECTM1B), mouse, extracellular domain; The cDNA was cloned between a CD5 leader and the human IgG1 aglycosyl Fc in pEE12(CMV/T7)CD5Lhγ1; also called mSECTM1B-Fc; Secreted and transmembrane 1B; source: CHO-S cells, purified with protein G agarose (elution with glycine pH 2.0); not shown: Fc (human IgG1, aglycosyl mutant), C-terminal, kept
T1 sequence (looked up): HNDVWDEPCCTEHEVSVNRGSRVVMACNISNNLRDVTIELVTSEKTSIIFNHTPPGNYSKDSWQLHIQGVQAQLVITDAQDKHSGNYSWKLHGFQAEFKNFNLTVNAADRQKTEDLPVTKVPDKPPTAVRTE
The experiment is described as follows: SPR; BIAcore 3000, 25°C, CM5 chip; Fc fusion proteins held on separate flow cells by mouse anti-human IgG (SBH2) on amine-coupled rabbit anti-mouse antibody; Fc fusion proteins at 25 µM injected in HEPES-buffered saline pH 7.4 at 5 µl per minute. The conditions noted are these: both partners purified. A general note: Surface plasmon resonance follows binding to a sensor surface in real time, without labels.

B1: CD7-Fc fusion protein (extracellular domain of murine CD7 fused to aglycosyl human IgG1 Fc) (Fc fusion, mouse, UniProt P50283 24-150, looked up)
chain: QDVHQSPRLTIASEGDSVNITCSTRGHLEGILMKKIWPQAYNVIYFEDRQEPTVDRTFSGRINFSGSQKNLTITISSLQLADTGDYTCEAVRKVSARGLFTTVVVKEKSSQEAYRSQEPLQTSFSFP
modifications: N-glycosylated
notes: CD7, mouse, extracellular domain; The cDNA was cloned between a CD5 leader and the human IgG1 aglycosyl Fc in pEE12(CMV/T7)CD5Lhγ1; also called mCD7-Fc; source: CHO-S cells, purified with protein G agarose (elution with glycine pH 2.0); not shown: Fc (human IgG1, aglycosyl mutant), C-terminal, kept
With B1, the binding result is listed as “binds”.
